Test results from article doi:10.1101/2024.10.29.620959.

Key:
[1] = molecular target: Mycobacterium tuberculosis FadD5 (fatty acyl-CoA synthetase, Rv0166), full length (Mycobacterium tuberculosis H37Rv); experiment: SAXS
[2] = molecular target: Mycobacterium tuberculosis FadD5 (fatty acyl-CoA synthetase, Rv0166), full length (Mycobacterium tuberculosis H37Rv); experiment: SEC-MALS
[3] = molecular target: Mycobacterium tuberculosis FadD5 (fatty acyl-CoA synthetase, Rv0166), full length (Mycobacterium tuberculosis H37Rv); experiment: native gel or EMSA
[4] = molecular target: FadD5(1-448), N-terminal domain construct of Mycobacterium tuberculosis FadD5 (Mycobacterium tuberculosis H37Rv); experiment: SEC-MALS

Mycobacterium tuberculosis FadD5 (fatty acyl-CoA synthetase, Rv0166), full length (enzyme)
stoichiometry N [1]: 2
stoichiometry N [2]: 2
stoichiometry N [3]: 2

FadD5(1-448), N-terminal domain construct of Mycobacterium tuberculosis FadD5 (domain or fragment)
stoichiometry N [4]: 2
